# Measurements reported in patent US20110118181A1 (INSTITUT DE RECHERHES CLINIQUES DE MONTREAL, published 2011).
# “And” between values parts separate entries of the source, which are not always exact repeats. Identical values can stand only once.
# B1: peptide No 896970 (73-mer AnxA2 R1 peptide extending from amino acids 25 to 97) (peptide)
# peptide: GSVKAYTNFDAERDALNIETAIKTKGVDEVTIVNILTNRSNAQRQDIAFAYQRRTKKELASALKSALSGHLET
# notes: also called AnxA2 25-97 peptide
# B2: CHRD-V5 (C-terminal Cys-His-rich domain of PCSK9, V5-tagged) (other, human, UniProt Q8NBP7 455-692, looked up)
# chain: LFCRTVWSAHSGPTRMATAVARCAPDEELLSCSSFSRSGKRRGERMEAQGGKLVCRAHNAFGGEGVYAIARCCLLPQANCSVHTAPPAEASMGTRVHCHQQGHVLTGCSSHWEVEDLGTHKPPVLRPRGQPNQCVGHREASIHASCCHAPGLECKVKEHGIPAPQEQVTVACEEGWTLTGCSALPGTSHVLGAYAVDNTCVVRSRDVSTTGSTSEGAVTAVAICCRSRHLAQASQELQ
# notes: domain: CHRD; Conditioned medium of CHO-K1 cells; also called CHRD alone; not shown: C-terminal V5 tag
# B3: AnxA2 Δ62-75-HA (other)
# chain: MSTVHEILCKLSLEGDHSTPPSAYGSVKAYTNFDAERDALNIETAIKTKGVDEVTIVNILTQRRTKKELASALKSALSGHLETVILGLLKTPAQYDASELKASMKGLGTDEDSLIEIICSRTNQELQEINRVYKEMYKTDLEKDIISDTSGDFRKLMVALAKGRRAEDGSVIDYELIDQDARDLYDAGVKRKGTDVPKWISIMTERSVPHLQKVFDRYKSYSPYDMLESIRKEVKGDLENAFLNLVQCIQNKPLYFADRLYDSMKGKGTRDKVLIRIMVSRSEVDMLKIRSEFKRKYGKSLYYYIQQDTKGDYQKALLYLCGGDDYPYDVPDYA
# B4: AnxA2 Δ82-88-HA (other)
# chain: MSTVHEILCKLSLEGDHSTPPSAYGSVKAYTNFDAERDALNIETAIKTKGVDEVTIVNILTNRSNAQRQDIAFAYQRRTKKSALSGHLETVILGLLKTPAQYDASELKASMKGLGTDEDSLIEIICSRTNQELQEINRVYKEMYKTDLEKDIISDTSGDFRKLMVALAKGRRAEDGSVIDYELIDQDARDLYDAGVKRKGTDVPKWISIMTERSVPHLQKVFDRYKSYSPYDMLESIRKEVKGDLENAFLNLVQCIQNKPLYFADRLYDSMKGKGTRDKVLIRIMVSRSEVDMLKIRSEFKRKYGKSLYYYIQQDTKGDYQKALLYLCGGDDYPYDVPDYA
# B5: AnxA2 ΔR3-HA (deletion of aa 193-268) (other)
# chain: MSTVHEILCKLSLEGDHSTPPSAYGSVKAYTNFDAERDALNIETAIKTKGVDEVTIVNILTNRSNAQRQDIAFAYQRRTKKELASALKSALSGHLETVILGLLKTPAQYDASELKASMKGLGTDEDSLIEIICSRTNQELQEINRVYKEMYKTDLEKDIISDTSGDFRKLMVALAKGRRAEDGSVIDYELIDYFADRLYDSMKGKGTRDKVLIRIMVSRSEVDMLKIRSEFKRKYGKSLYYYIQQDTKGDYQKALLYLCGGDDYPYDVPDYA
# notes: also called Δ193-268 (R3)
# B6: AnxA2 ΔR1-HA (deletion of aa 37-108) (other)
# chain: MSTVHEILCKLSLEGDHSTPPSAYGSVKAYTNFDAEYDASELKASMKGLGTDEDSLIEIICSRTNQELQEINRVYKEMYKTDLEKDIISDTSGDFRKLMVALAKGRRAEDGSVIDYELIDQDARDLYDAGVKRKGTDVPKWISIMTERSVPHLQKVFDRYKSYSPYDMLESIRKEVKGDLENAFLNLVQCIQNKPLYFADRLYDSMKGKGTRDKVLIRIMVSRSEVDMLKIRSEFKRKYGKSLYYYIQQDTKGDYQKALLYLCGGDDYPYDVPDYA
# notes: also called Δ37-108 (R1)
# B7: human Annexin A1 (AnxA1), untagged (other, UniProt P04083 2-346, looked up)
# chain: AMVSEFLKQAWFIENEEQEYVQTVKSSKGGPGSAVSPYPTFNPSSDVAALHKAIMVKGVDEATIIDILTKRNNAQRQQIKAAYLQETGKPLDETLKKALTGHLEEVVLALLKTPAQFDADELRAAMKGLGTDEDTLIEILASRTNKEIRDINRVYREELKRDLAKDITSDTSGDFRNALLSLAKGDRSEDFGVNEDLADSDARALYEAGERRKGTDVNVFNTILTTRSYPQLRRVFQKYTKYSKHDMNKVLDLELKGDIEKCLTAIVKCATSKPAFFAEKLHQAMKGVGTRHKALIRIMVSRSEIDMNDIKAFYQKMYGISLCQAILDETKGDYEKILVALCGGN
# notes: Overexpressed in CHO cells as control
# B8: AnxA2 ΔR2-HA (deletion of aa 109-192) (other)
# chain: MSTVHEILCKLSLEGDHSTPPSAYGSVKAYTNFDAERDALNIETAIKTKGVDEVTIVNILTNRSNAQRQDIAFAYQRRTKKELASALKSALSGHLETVILGLLKTPAQQDARDLYDAGVKRKGTDVPKWISIMTERSVPHLQKVFDRYKSYSPYDMLESIRKEVKGDLENAFLNLVQCIQNKPLYFADRLYDSMKGKGTRDKVLIRIMVSRSEVDMLKIRSEFKRKYGKSLYYYIQQDTKGDYQKALLYLCGGDDYPYDVPDYA
# notes: also called Δ109-192 (R2)
# B9: AnxA2 ΔR4-HA (deletion of aa 269-339) (other)
# chain: MSTVHEILCKLSLEGDHSTPPSAYGSVKAYTNFDAERDALNIETAIKTKGVDEVTIVNILTNRSNAQRQDIAFAYQRRTKKELASALKSALSGHLETVILGLLKTPAQYDASELKASMKGLGTDEDSLIEIICSRTNQELQEINRVYKEMYKTDLEKDIISDTSGDFRKLMVALAKGRRAEDGSVIDYELIDQDARDLYDAGVKRKGTDVPKWISIMTERSVPHLQKVFDRYKSYSPYDMLESIRKEVKGDLENAFLNLVQCIQNKPLYPYDVPDYA
# notes: also called Δ269-339 (R4)
# B10: AnxA2 Δ89-101-HA (other)
# chain: MSTVHEILCKLSLEGDHSTPPSAYGSVKAYTNFDAERDALNIETAIKTKGVDEVTIVNILTNRSNAQRQDIAFAYQRRTKKELASALKLLKTPAQYDASELKASMKGLGTDEDSLIEIICSRTNQELQEINRVYKEMYKTDLEKDIISDTSGDFRKLMVALAKGRRAEDGSVIDYELIDQDARDLYDAGVKRKGTDVPKWISIMTERSVPHLQKVFDRYKSYSPYDMLESIRKEVKGDLENAFLNLVQCIQNKPLYFADRLYDSMKGKGTRDKVLIRIMVSRSEVDMLKIRSEFKRKYGKSLYYYIQQDTKGDYQKALLYLCGGDDYPYDVPDYA
# B11: AnxA2 Δ102-108-HA (other)
# chain: MSTVHEILCKLSLEGDHSTPPSAYGSVKAYTNFDAERDALNIETAIKTKGVDEVTIVNILTNRSNAQRQDIAFAYQRRTKKELASALKSALSGHLETVILGYDASELKASMKGLGTDEDSLIEIICSRTNQELQEINRVYKEMYKTDLEKDIISDTSGDFRKLMVALAKGRRAEDGSVIDYELIDQDARDLYDAGVKRKGTDVPKWISIMTERSVPHLQKVFDRYKSYSPYDMLESIRKEVKGDLENAFLNLVQCIQNKPLYFADRLYDSMKGKGTRDKVLIRIMVSRSEVDMLKIRSEFKRKYGKSLYYYIQQDTKGDYQKALLYLCGGDDYPYDVPDYA
# B12: AnxA2 Δ74-88-HA (other)
# chain: MSTVHEILCKLSLEGDHSTPPSAYGSVKAYTNFDAERDALNIETAIKTKGVDEVTIVNILTNRSNAQRQDIAFSALSGHLETVILGLLKTPAQYDASELKASMKGLGTDEDSLIEIICSRTNQELQEINRVYKEMYKTDLEKDIISDTSGDFRKLMVALAKGRRAEDGSVIDYELIDQDARDLYDAGVKRKGTDVPKWISIMTERSVPHLQKVFDRYKSYSPYDMLESIRKEVKGDLENAFLNLVQCIQNKPLYFADRLYDSMKGKGTRDKVLIRIMVSRSEVDMLKIRSEFKRKYGKSLYYYIQQDTKGDYQKALLYLCGGDDYPYDVPDYA
# Experiments:
# [1] = target: T1, purified biotin-conjugated PCSK9 (UniProt Q8NBP7 31-692, limits assumed, biotin-conjugated (site not stated)); assay: AlphaScreen competition of biotin-PCSK9 binding to His6-LDLR ectodomain
# T1 construct: Coated on streptavidin donor beads; also called PCSK9 (AlphaScreen donor beads)
# Description: AlphaScreen® (Perkin Elmer) streptavidin donor beads were coated with purified biotin-conjugated PCSK9 and AlphaScreen® nickel chelate acceptor beads were coated with purified His6-conjugated LDLR ectodomain. Competition in the AlphaScreen® PCSK9-LDLR interaction assay was measured, in the presence of increasing concentrations of AnxA2-derived peptides, as a reduction of fluorescence.
# [2] = target: B6; assay: Far Western blot of HEK293 lysates
# [3] = target: T2, ˜33 kDa protein of COS-1 cells, identified as monkey Annexin A2 (AnxA2; XP-001155637) (monkey); assay: Far Western blot of COS-1 lysates
# T2 construct: Denatured on nitrocellulose in Far Western blots; native in co-IP; The ˜33 kDa band was also seen in BSC40 and HuH7 lysates; also called endogenous Annexin A2
# T2 sequence (P07355 2-339): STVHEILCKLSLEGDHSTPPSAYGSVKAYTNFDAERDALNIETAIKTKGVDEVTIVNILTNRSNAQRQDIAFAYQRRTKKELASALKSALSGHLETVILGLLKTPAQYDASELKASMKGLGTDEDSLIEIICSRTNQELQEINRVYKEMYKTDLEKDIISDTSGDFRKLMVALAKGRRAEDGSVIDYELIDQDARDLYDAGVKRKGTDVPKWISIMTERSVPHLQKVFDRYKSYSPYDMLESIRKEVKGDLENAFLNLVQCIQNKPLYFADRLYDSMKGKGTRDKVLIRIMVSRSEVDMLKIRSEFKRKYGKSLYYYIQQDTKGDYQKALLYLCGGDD
# Description: All of these were detected by the HRP-tagged V5 mAb. (B) The COS-1 cells soluble fraction (supernatant S3; 3 μg protein) was analyzed by Far Western blot and compared to 30 μg protein loads from other subcellular fractions. […] (D) For competition experiments, purified PCSK9-His or CHRD-His were added to the PCSK9-V5 conditioned media used for Far Western blotting. (E) PCSK9-V5-binding requirements were tested by adding 1M NaCl, 10 mg/ml heparin, 1M NaCl+10 mg/ml heparin, or 100 mM EDTA to the PCSK9-V5 conditioned media used for Far Western blotting. Heavy arrows point to the migration position of the ˜33 kDa protein, and the light arrow to that of the ˜45 kDa protein. (−) denotes a control lane where nothing was added to the Far Western blotting media;
# Lysates (20 to 30 μg protein), media or purified AnxA2-(His)₆ were heated in reducing or non-reducing Laemmli sample buffer, resolved by SDS-PAGE on 8% glycine gels and electro-transferred onto nitrocellulose membranes (GE Healthcare). Following 1 h incubation in 5% skim milk in Tris-Buffered Saline-0.1% Tween (TBST), membranes where incubated with conditioned media of CHO-K1 cells overexpressing either an empty vector (pIRES-V5), PC5A-V5, CHRD-V5, pIRES-D374Y, PCSK9-V5 or its V5-tagged mutants, or incubated with purified AnxA2-(His)₆ for 3 h at room temperature. […]
# [4] = target: T3, PCSK9-V5 (full-length human PCSK9 with C-terminal V5 tag) (human, UniProt Q8NBP7 31-692); assay: Far Western blot of HEK293 lysates
# T3 construct: Used as conditioned medium of CHO-K1 cells (Far Western, pull-down) or co-expressed in cells (co-IP); The background says PCSK9 is secreted as a prosegment-PCSK9 heterodimer; also called full-length (FL) PCSK9-V5; native PCSK9; not shown: C-terminal V5 tag
# [5] = target: T3, PCSK9-V5 (full-length human PCSK9 with …); assay: Far Western blot of lysates of CHO cells overexpressing AnxA1
# Description: Lysates (20 to 30 μg protein), media or purified AnxA2-(His)₆ were heated in reducing or non-reducing Laemmli sample buffer, resolved by SDS-PAGE on 8% glycine gels and electro-transferred onto nitrocellulose membranes (GE Healthcare). Following 1 h incubation in 5% skim milk in Tris-Buffered Saline-0.1% Tween (TBST), membranes where incubated with conditioned media of CHO-K1 cells overexpressing either an empty vector (pIRES-V5), PC5A-V5, CHRD-V5, pIRES-D374Y, PCSK9-V5 or its V5-tagged mutants, or incubated with purified AnxA2-(His)₆ for 3 h at room temperature. […] For competition experiments, 10 μg of His-tagged PCSK9 or CHRD were added to the PCSK9-V5 media before Far Western blotting. For PCSK9 binding requirements with the ˜33 kDa protein, 1M NaCl, 10 mg/ml heparin, 1M NaCl+10 mg/ml heparin, or 100 mM EDTA were added to the PCSK9-V5 conditioned media used for Far Western blotting.
binding result [4],Binder,other results
–,B1,IC50 [1]: 500 nM to 1 µM (2×) and 750 nM
–,B2,binding result [2]: no binding; fold binding against full length PCSK9 [3]: 3 fold
no binding,B3,–
no binding,B4,–
binds,B5,–
no binding,B6,–
–,B7,binding result [5]: no binding
binds,B8,–
binds,B9,–
no binding,B10,–
no binding,B11,–
no binding,B12,–
